We go through four molecules from US20210188951A1 (Merck Sharp & Dohme, published 2021).

The target of test [1] is human RSV pre-fusion F protein (human respiratory syncytial virus (hRSV), UniProt P03420 26-513). Put plainly: ELISA on coated pre-F. On the technique in general: ELISA stands for enzyme-linked immunosorbent assay.
Test [2] concerns the target human RSV post-fusion F protein LZF21 (human respiratory syncytial virus (hRSV), UniProt P03420 26-524). Put plainly: ELISA on coated post-F.
The target in test [3] is T1, human RSV pre-fusion F protein (human respiratory syncytial virus (hRSV), UniProt P03420 26-513).
T1 construct: also called hRSV pre-F
Put plainly: SPR (Biacore).

For test [4], the target named is T2, human RSV post-fusion F protein LZF21 (human respiratory syncytial virus (hRSV), UniProt P03420 26-524).
T2 construct: extracellular domain; Trimeric; also called LZF21-biotin
Put plainly: SPR (Biacore). A general note: SPR reads the build-up and loss of mass on a sensor chip optically.

In test [5] the target is T3, human RSV A F protein (ELISA of Example 6; pre- or post-fusion form not stated) (human RSV A, UniProt P03420 26-513). Briefly: ELISA on coated F protein; lower end of the range.
For test [6], the target named is T3, human RSV A F protein (ELISA of Example …). Put plainly: ELISA, RSV A F protein on the plate, antibody titrated, OD450.
Test [7] deals with T1, human RSV pre-fusion F protein. Put plainly: ELISA on coated pre-F.
The target in test [8] is T2, human RSV post-fusion F protein LZF21. Put plainly: ELISA on coated post-F.
Test [9] has as its target T1, human RSV pre-fusion F protein. Briefly: SPR, Biacore T200, 1:1 Langmuir fit.
Description: (§1) Background subtraction binding sensorgrams were used for analyzing the rate constant of association (kₐ) and dissociation (kd), and the equilibrium dissociation constant KD. The resulting data sets were fitted with a 1:1 Langmuir Binding Model using the Biacore T200 evaluation software (version 2.0).
For test [10], the target named is T2, human RSV post-fusion F protein LZF21. Put plainly: SPR, Biacore T200, 1:1 Langmuir fit.
Description: as §1
Test [11] deals with T4, RSV-F protein R429A mutant, expressed in human cells (UniProt P03420 26-574).
T4 construct: whole, on cells
Briefly: shotgun mutagenesis alanine scan, antibody binding to F mutant expressed in human cells.

In test [12] the target is T5, RSV-F protein I432A mutant, expressed in human cells (UniProt P03420 26-574).
T5 construct: whole, on cells
The test is described as above.

B1: palivizumab (SYNAGIS) (antibody, V domains shown)
VH: QVTLRESGPALVKPTQTLTLTCTFSGFSLSTSGMSVGWIRQPPGKALEWLADIWWDDKKDYNPSLKSRLTISKDTSKNQVVLKVTNMDPADTATYYCARSMITNWYFDVWGAGTTVTVSS
VL: DIQMTQSPSTLSASVGDRVTITCKCQLSVGYMHWYQQKPGKAPKLLIYDTSKLASGVPSRFSGSGSGTEFTLTISSLQPDDFATYYCFQGSGYPFTFGGGTKLEIK
A word on the EC50: it is the midpoint of the concentration-response curve. As to B1, the EC50 in test [1] worked out at 17.4 ng/mL; in [2], 10.5 ng/mL.

B2: RB1+YTE (human IgG1 with M252Y/S254T/T256E in the Fc) (antibody, V domains shown)
VH: EVQLVESGGGLVRPGRSLRLSCTVSGFSFDDSAMSWVRQAPGKGLEWISFIKSKTYGGTKEYAASVKGRFTISRDDSKNIAYLQMNSLKTEDTAVYYCTRGAPYGGNSDYYYGLDVWGQGTTVTVSS
VL: DIQMTQSPSSLSASVGDRVTITCRTSQDVRGALAWYQQKPGKAPKLLIFDASSLETGVPSRFSGSGSGTVFTLTISSLQPEDFAAYYCQQFLDFPFTFGQGTRLEIKR
For orientation: Kd means the concentration at which binding is half-saturated. A lower Kd goes with tighter binding. A word on the koff: it is the first-order rate constant of dissociation. Read a high koff as fast dissociation. In general, kon refers to a measure of how fast the partners come together. Low values mean slow association, high ones fast association. With B2, in test [3], binding was characterised by a dissociation constant (Kd) of 0.071 nM, the koff was 0.00023 s⁻¹ and the kon was 3.2e+06 M⁻¹ s⁻¹. In [4], the Kd is 0.48 nM, the koff amounted to 0.0007 s⁻¹ and the kon worked out at 1.4e+06 M⁻¹ s⁻¹. In test [5], this molecule returned an EC50 of 1.97 to 2.46 ng/mL. In test [6], this molecule yielded an EC50 of 2.24 ng/mL.

B3: RB1 (recombinant human IgG1, CHO-3E7 expressed) (antibody, V domains shown)
VH: EVQLVESGGGLVRPGRSLRLSCTVSGFSFDDSAMSWVRQAPGKGLEWISFIKSKTYGGTKEYAASVKGRFTISRDDSKNIAYLQMNSLKTEDTAVYYCTRGAPYGGNSDYYYGLDVWGQGTTVTVSS
VL: DIQMTQSPSSLSASVGDRVTITCRTSQDVRGALAWYQQKPGKAPKLLIFDASSLETGVPSRFSGSGSGTVFTLTISSLQPEDFAAYYCQQFLDFPFTFGQGTRLEIKR
notes: Variable domains converted to human IgG1 and expressed in CHO-3E7 cells; also called RB1 MAb; anti-human RSV F protein antibody RB1
With B3, the Kd in [3] was 0.031 nM; in [4] it was 0.41 nM; in [9], 0.031 nM; in [10], 0.41 nM. The off-rate (koff) is 0.00014 s⁻¹ in test [3], 0.0009 s⁻¹ in test [4], 0.00014 s⁻¹ in test [9] and 0.0009 s⁻¹ in test [10]. In addition, the kon was 4.4e+06 M⁻¹ s⁻¹ in test [3], 2.2e+06 M⁻¹ s⁻¹ in test [4], 4.4e+06 M⁻¹ s⁻¹ in test [9] and 2.2e+06 M⁻¹ s⁻¹ in test [10]. Moreover, the EC50 in test [7] was determined as 7.05 ng/mL; in [8] it was 14.1 ng/mL. For the same molecule, the “Binding Reactivity (% WT)” value in test [11] came out at 33.1 % WT; in test [12], 36.7 % WT.

B4: D25 antibody (antibody, V domains shown)
VH: QVQLVQSGAEVKKPGSSVMVSCQASGGPLRNYIINWLRQAPGQGPEWMGGIIPVLGTVHYAPKFQGRVTITADESTDTAYIHLISLRSEDTAMYYCATETALVVSTTYLPHYFDNWGQGTLVTVSS
VL: DIQMTQSPSSLSAAVGDRVTITCQASQDIVNYLNWYQQKPGKAPKLLIYVASNLETGVPSRFSGSGSGTDFSLTISSLQPEDVATYYCQQYDNLPLTFGGGTKVEIKR
Consider B4, for which, in test [1], the EC50 turned out to be 8.94 ng/mL.
